In article PMC6324938 (Developmental cell, 2018):

T1: Gdi1 (GDP dissociation inhibitor) (UniProt P39958 1-451)
T1 sequence (looked up): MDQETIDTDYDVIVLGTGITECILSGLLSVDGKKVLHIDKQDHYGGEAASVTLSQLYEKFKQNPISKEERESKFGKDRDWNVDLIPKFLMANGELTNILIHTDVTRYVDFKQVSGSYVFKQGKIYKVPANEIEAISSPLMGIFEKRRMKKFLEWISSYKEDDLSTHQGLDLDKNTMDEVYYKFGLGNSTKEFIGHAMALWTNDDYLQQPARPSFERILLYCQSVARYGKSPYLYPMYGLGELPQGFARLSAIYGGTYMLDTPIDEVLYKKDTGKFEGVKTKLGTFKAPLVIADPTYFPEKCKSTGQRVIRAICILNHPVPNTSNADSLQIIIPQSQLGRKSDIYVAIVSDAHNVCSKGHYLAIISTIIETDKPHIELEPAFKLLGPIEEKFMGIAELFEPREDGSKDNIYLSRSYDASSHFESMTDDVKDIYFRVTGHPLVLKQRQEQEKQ


Biological target: T1, Gdi1 (GDP dissociation inhibitor)
Assay: SEC

| binding result | Binder |
| --- | --- |
| binds | prenylated Ypt31 (mantGDP-labeled, of the Rab/GDI substrate) (natural protein, S. cerevisiae, UniProt P38555 1-223, looked up, prenylated (geranylgeranyl) at the C-terminus; loaded with mantGDP) MSSEDYGYDYDLLFKIVLIGDSGVGKSNLLSRFTKNEFNMDSKSTIGVEFATRTLEIDGKRIKAQIWDTAGQERYRAITSAYYRGAVGALIVYDISKSSSYENCNHWLSELRENADDNVAVGLIGNKSDLAHLRAVPTEESKTFAQENQLLFTETSALNSENVDKAFEELINTIYQKVSKHQMDLGDSSANGNANGASAPNGPTISLTPTPNENKKANGNNCC |
| binds | prenylated Ypt1 (mantGDP-labeled, of the Rab/GDI substrate) (natural protein, prenylated (geranylgeranyl) at the C-terminus; loaded with mantGDP) not shown |
